Assay results as given in the supplement of paper PMC11246515.
± gives the standard deviation of the averaged measurements.

Assay: total protein half-life in vivo (active degradation + dilution); higher = more stable protein
[1] = E. coli NCM3722 delta-clpP delta-lon delta-hslV, growth: N-lim chemostat, doubling time 6 h
[2] = E. coli NCM3722 delta-clpP, growth: N-lim chemostat, doubling time 6 h
[3] = E. coli NCM3722 delta-hslV, growth: N-lim chemostat, doubling time 6 h
[4] = E. coli NCM3722 delta-lon, growth: N-lim chemostat, doubling time 6 h
[5] = E. coli NCM3722 delta-smpB, growth: N-lim chemostat, doubling time 6 h
[6] = wild type E. coli NCM3722, growth: C-lim chemostat, doubling time 3 h
[7] = wild type E. coli NCM3722, growth: C-lim chemostat, doubling time 6 h
[8] = wild type E. coli NCM3722, growth: C-lim chemostat, doubling time 12 h
[9] = wild type E. coli NCM3722, growth: N-lim chemostat, doubling time 6 h
[10] = wild type E. coli NCM3722, growth: N-lim chemostat, doubling time 12 h
[11] = wild type E. coli NCM3722, growth: P-lim chemostat, doubling time 6 h
[12] = wild type E. coli NCM3722, growth: P-lim chemostat, doubling time 12 h

Sequence	total protein half-life in vivo [1]	total protein half-life in vivo [2]	total protein half-life in vivo [3]	total protein half-life in vivo [4]	total protein half-life in vivo [5]	total protein half-life in vivo [6]	total protein half-life in vivo [7]	total protein half-life in vivo [8]	total protein half-life in vivo [9]	total protein half-life in vivo [10]	total protein half-life in vivo [11]	total protein half-life in vivo [12]
MSSSCIEEVSVPDDNWYRIANELLSRAGIAINGSAPADIRVKNPDFFKRVLQEGSLGLGESYMDGWWECDRLDMFFSKVLRAGLENQLPHHFKDTLRIAGARLFNLQSKKRAWIVGKEHYDLGNDLFSRMLDPFMQYSCAYWKDADNLESAQQAKLKMICEKLQLKPGMRVLDIGCGWGGLAHYMASNYDVSVVGVTISAEQQKMAQERCEGLDVTILLQDYRDLNDQFDRIVSVGMFEHVGPKNYDTYFAVVDRNLKPEGIFLLHTIGSKKTDLNVDPWINKYIFPNGCLPSVRQIAQSSEPHFVMEDWHNFGADYDTTLMAWYERFLAAWPEIADNYSERFKRMFTYYLNACAGAFRARDIQLWQVVFSRGVENGLRVAR [P0A9H7]	2.09 ± 0.32 h	0.86 ± 0.041 h	0.465 ± 0.078 h	0.662 ± 0.29 h	0.503 ± 0.04 h	0.474 ± 0.077 h	0.6003 ± 0.0022 h	0.871 ± 0.26 h	0.643 ± 0.12 h	0.868 ± 0.22 h	0.649 ± 0.26 h	1.27 ± 0.76 h
MRITIILVAPARAENIGAAARAMKTMGFSDLRIVDSQAHLEPATRWVAHGSGDIIDNIKVFPTLAESLHDVDFTVATTARSRAKYHYYATPVELVPLLEEKSSWMSHAALVFGREDSGLTNEELALADVLTGVPMVADYPSLNLGQAVMVYCYQLATLIQQPAKSDATADQHQLQALRERAMTLLTTLAVADDIKLVDWLQQRLGLLEQRDTAMLHRLLHDIEKNITK		4 ± 0.61 h	3.98 ± 0.83 h	4.08 ± 0.37 h	3.38 ± 0.046 h		5.62 ± 0.99 h	7.53 ± 0.58 h	3.72 ± 0.22 h	5.26 ± 0.45 h	4.87 ± 0.26 h	11.5 ± 2.5 h
MFSGLLIILVPLIVGYLIPLRQQAALKVINQLLSWMVYLILFFMGISLAFLDNLASNLLAILHYSAVSITVILLCNIAALMWLERGLPWRNHHQQEKLPSRIAMALESLKLCGVVVIGFAIGLSGLAFLQHATEASEYTLILLLFLVGIQLRNNGMTLKQIVLNRRGMIVAVVVVVSSLIGGLINAFILDLPINTALAMASGFGWYSLSGILLTESFGPVIGSAAFFNDLARELIAIMLIPGLIRRSRSTALGLCGATSMDFTLPVLQRTGGLDMVPAAIVHGFILSLLVPILIAFFSA							3.12 h			8.87 h		8.67 ± 0.3 h
MNNNLQRDAIAAAIDVLNEERVIAYPTEAVFGVGCDPDSETAVMRLLELKQRPVDKGLILIAANYEQLKPYIDDTMLTDVQRETIFSRWPGPVTFVFPAPATTPRWLTGRFDSLAVRVTDHPLVVALCQAYGKPLVSTSANLSGLPPCRTVDEVRAQFGAAFPVVPGETGGRLNPSEIRDALTGELFRQG	4.72 ± 0.33 h	4.4 ± 0.6 h	4.12 ± 0.43 h	5.29 ± 0.27 h	3.89 ± 0.05 h		5.61 ± 0.47 h	9.17 ± 0.24 h	4.08 ± 0.38 h	5.63 ± 1.6 h	5.25 ± 0.24 h	11 ± 1.6 h
MDQIRLTHLRQLEAESIHIIREVAAEFSNPVMLYSIGKDSSVMLHLARKAFYPGTLPFPLLHVDTGWKFREMYEFRDRTAKAYGCELLVHKNPEGVAMGINPFVHGSAKHTDIMKTEGLKQALNKYGFDAAFGGARRDEEKSRAKERIYSFRDRFHRWDPKNQRPELWHNYNGQINKGESIRVFPLSNWTEQDIWQYIWLENIDIVPLYLAAERPVLERDGMLMMIDDNRIDLQPGEVIKKRMVRFRTLGCWPLTGAVESNAQTLPEIIEEMLVSTTSERQGRVIDRDQAGSMELKKRQGYF	5.8 ± 1.9 h	3.7 ± 0.045 h	1.49 ± 0.57 h	1.35 ± 0.17 h	1.29 ± 0.12 h	1.58 ± 0.062 h	1.94 ± 0.21 h	2.88 ± 0.15 h	1.206 ± 0.0024 h	1.44 ± 0.29 h	1.46 ± 0.23 h	2.57 ± 0.54 h
MSDEGLAPGKRLSEIRQQQGLSQRRAAELSGLTHSAISTIEQDKVSPAISTLQKLLKVYGLSLSEFFSEPEKPDEPQVVINQDDLIEMGSQGVSMKLVHNGNPNRTLAMIFETYQPGTTTGERIKHQGEEIGTVLEGEIVLTINGQDYHLVAGQSYAINTGIPHSFSNTSAGICRIISAHTPTTF [P0A9U6]	5.35 ± 0.67 h	5.41 ± 3.1 h	3.29 h	4.06 ± 0.25 h	2.66 ± 0.063 h		4.03 ± 0.12 h	5.53 ± 0.11 h	2.7 ± 0.51 h	3.47 ± 0.064 h	4.43 ± 0.92 h	6.69 ± 0.82 h
MFKSTLAAMAAVFALSALSPAAMAAKGDPHVLLTTSAGNIELELDKQKAPVSVQNFVDYVNSGFYNNTTFHRVIPGFMIQGGGFTEQMQQKKPNPPIKNEADNGLRNTRGTIAMARTADKDSATSQFFINVADNAFLDHGQRDFGYAVFGKVVKGMDVADKISQVPTHDVGPYQNVPSKPVVILSAKVLP [P0AFL3]	5.17 ± 0.94 h			6.04 ± 0.29 h	5.59 ± 0.8 h	3.1 ± 0.19 h	4.98 ± 0.6 h	8.28 ± 1.4 h	5.46 ± 0.15 h	10.36 ± 0.074 h	5.31 ± 0.43 h	11.5 ± 0.59 h
MSKSNPSEVKLAVPTSGGFSGLKSLNLQVFVMIAAIIAIMLFFTWTTDGAYLSARNVSNLLRQTAITGILAVGMVFVIISAEIDLSVGSMMGLLGGVAAICDVWLGWPLPLTIIVTLVLGLLLGAWNGWWVAYRKVPSFIVTLAGMLAFRGILIGITNGTTVSPTSAAMSQIGQSYLPASTGFIIGALGLMAFVGWQWRGRMRRQALGLQSPASTAVVGRQALTAIIVLGAIWLLNDYRGVPTPVLLLTLLLLGGMFMATRTAFGRRIYAIGGNLEAARLSGINVERTKLAVFAINGLMVAIAGLILSSRLGAGSPSAGNIAELDAIAACVIGGTSLAGGVGSVAGAVMGAFIMASLDNGMSMMDVPTFWQYIVKGAILLLAVWMDSATKRRS [P0AGI4]					4.37 ± 0.55 h	3.44 ± 0.11 h	5.06 ± 1.1 h	9.1 ± 0.54 h			4.71 ± 0.42 h	8.47 h
